The target of this assay is T1, human TL1A (Fitzgerald #30R-AT070) (human, UniProt O95150 72-251, limits assumed).
T1 construct: Coated on the ELISA plate at 1 ug/mL; also called TNFSF15
T1 sequence (looked up): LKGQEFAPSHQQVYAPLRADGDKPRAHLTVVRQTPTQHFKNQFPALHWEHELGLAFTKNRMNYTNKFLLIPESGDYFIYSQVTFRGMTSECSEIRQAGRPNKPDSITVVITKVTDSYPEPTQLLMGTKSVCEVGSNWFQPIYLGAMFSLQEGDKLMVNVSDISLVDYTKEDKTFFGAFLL
Put plainly: ELISA titration, coated human TL1A, culture supernatant.

B1: A68 (antibody, human IgG1, V domains shown)
VH: QVQLVQSGAEVKKPGASVKVSCKASGFDIQDTYMHWVRQAPGQGLEWMGRIEPASGHIKYDPKFQVRVTITRDTSTSTVYMELSSLRSEDTAVYYCARSGGLPDWWGQGTTVTVSS
VL: EIVLTQSPGTLSLSPGERATLSCRASSSVSYMYWYQQKPGQAPRLLIYATSNLASGIPDRFSGSGSGTDFTLTISRLEPEDFAVYYCQQWEGNPRTFGGGTKLEIK
notes: human IgG1/kappa (pFuse vectors), culture supernatant
Regarding B1, the dissociation constant (Kd) turned out to be 0.074 nM.

B2: A97 (antibody, human IgG1, V domains shown)
VH: QVQLVQSGAEVKKPGASVKVSCKASGFDIQDTYMHWVRQAPGQGLEWMGRIEPASGHIKYDPKFQVRVTMTRDTSTSTVYMELSSLRSEDTAVYYCARSGGLPDWWGQGTTVTVSS
VL: EIVLTQSPGTLSLSPGERATLSCRASSSVSYMYWYQQKPGQAPRLLIYATSNLASGIPDRFSGSGSGTDFTLTISRLEPEDFAVYYCQQWEGNPRTFGGGTKLEIK
notes: as for B1
For B2, the equilibrium dissociation constant (Kd) stood at 0.071 nM.

B3: A92 (antibody, human IgG1, V domains shown)
VH: QVQLVQSGAEVKKPGASVKVSCKASGFDIQDTYMHWVRQAPGQGLEWMGRIEPASGHIKYDPKFQGRVTMTRDTSTSTVYLELSSLRSEDTAVYYCARSGGLPDWWGQGTTVTVSS
VL: EIVLTQSPGTLSLSPGERATLSCRASSSVSYMYWYQQKPGQAPRLLIYATSNLASGIPDRFSGSGSGTDFTLTISRLEPEDFAVYYCQQWEGNPRTFGGGTKLEIK
notes: as for B1
Turning to B3, the Kd amounted to 0.121 nM.

B4: A94 (antibody, human IgG1, V domains shown)
VH: QVQLVQSGAEVKKPGASVKVSCKASGFDIQDTYMHWVRQAPGQGLEWMGRIEPASGHIKYDPKFQVRATITRDTSTSTVYMELSSLRSEDTAVYYCARSGGLPDWWGQGTTVTVSS
VL: EIVLTQSPGTLSLSPGERATLSCRASSSVSYMYWYQQKPGQAPRLLIYATSNLASGIPDRFSGSGSGTDFTLTISRLEPEDFAVYYCQQWEGNPRTFGGGTKLEIK
notes: as for B1
B4 registered a Kd of 0.081 nM.

B5: A87 (antibody, human IgG1, V domains shown)
VH: QVQLVQSGAEVKKPGASVKVSCKASGFDIQDTYMHWVRQAPGQGLEWMGRIEPASGHIKYDPKFQGRVTMTRDTSTSTVYMELSSLRSEDTAVYYCARSGGLPDWWGQGTTVTVSS
VL: EIVLTQSPGTLSLSPGERATLSCRASSSVSYMYWYQQKPGQAPRLLIYATSNLASGIPDRFSGSGSGTDFTLTISRVEPEDFAVYYCQQWEGNPRTFGGGTKLEIK
notes: as for B1
In turn, B5 came in with a Kd of 0.121 nM.

B6: A86 (antibody, human IgG1, V domains shown)
VH: QVQLVQSGAEVKKPGASVKVSCKASGFDIQDTYMHWVRQAPGQGLEWMGRIEPASGHIKYDPKFQGRVTMTRDTSTSTVYMELSSLRSEDTAVYYCARSGGLPDWWGQGTTVTVSS
VL: EIVLTQSPGTLSLSPGERATLSCRASSSVSYMYWYQQKPGQAPRLLIYATSNLASGIPDRFSGSGSGTDYTLTISRLEPEDFAVYYCQQWEGNPRTFGGGTKLEIK
notes: as for B1
B6: the Kd is 0.129 nM.

B7: A95 (antibody, human IgG1, V domains shown)
VH: QVQLVQSGAEVKKPGASVKVSCKASGFDIQDTYMHWVRQAPGQGLEWMGRIEPASGHIKYDPKFQGRATITTDTSTSTVYMELSSLRSEDTAVYYCARSGGLPDWWGQGTTVTVSS
VL: EIVLTQSPGTLSLSPGERATLSCRASSSVSYMYWYQQKPGQAPRPWIYATSNLASGIPDRFSGSGSGTDFTLTISRLEPEDFAVYYCQQWEGNPRTFGGGTKLEIK
notes: as for B1
For B7, the dissociation constant (Kd) is 0.105 nM.

B8: A70 (antibody, human IgG1, V domains shown)
VH: QVQLVQSGAEVKKPGASVKVSCKASGFDIQDTYMHWVRQAPGQGLEWMGRIEPASGHIKYDPKFQGRVTMTTDTSTSTVYMELSSLRSEDTAVYYCARSGGLPDWWGQGTTVTVSS
VL: EIVLTQSPGTLSLSPGERATLSCRASSSVSYMYWYQQKPGQAPRLLIYATSNLASGIPDRFSGSGSGTDFTLTISRLEPEDFAVYYCQQWEGNPRTFGGGTKLEIK
notes: as for B1
As to B8, the Kd amounted to 0.149 nM.

B9: A91 (antibody, human IgG1, V domains shown)
VH: QVQLVQSGAEVKKPGASVKVSCKASGFDIQDTYMHWVRQAPGQGLEWMGRIEPASGHIKYDPKFQGRVTMTRDTSTSTAYMELSSLRSEDTAVYYCARSGGLPDWWGQGTTVTVSS
VL: EIVLTQSPGTLSLSPGERATLSCRASSSVSYMYWYQQKPGQAPRLLIYATSNLASGIPDRFSGSGSGTDFTLTISRLEPEDFAVYYCQQWEGNPRTFGGGTKLEIK
notes: as for B1
On to B9, for which the dissociation constant (Kd) worked out at 0.132 nM.

B10: A75 (antibody, human IgG1, V domains shown)
VH: QVQLVQSGAEVKKPGASVKVSCKASGFDIQDTYMHWVRQAPGQGLEWMGRIEPASGHIKYDPKFQGRATITTDTSTSTVYMELSSLRSEDTAVYYCARSGGLPDWWGQGTTVTVSS
VL: EIVLTQSPGTLSLSPGERATLSCRASSSVSYMYWYQQKPGQAPRPWIYATSNLASGIPDRFSGSGSGTDFTLTISRLEPEDFAVYYCQQWEGNPRTFGGGTKLEIK
notes: as for B1
Molecule B10 had a Kd of 0.259 nM.

B11: A93 (antibody, human IgG1, V domains shown)
VH: QVQLVQSGAEVKKPGASVKVSCKASGFDIQDTYMHWVRQAPGQGLEWMGRIEPASGHIKYDPKFQGRVTMTRDTSTSTAYLELSSLRSEDTAVYYCARSGGLPDWWGQGTTVTVSS
VL: EIVLTQSPGTLSLSPGERATLSCRASSSVSYMYWYQQKPGQAPRLLIYATSNLASGIPDRFSGSGSGTDFTLTISRLEPEDFAVYYCQQWEGNPRTFGGGTKLEIK
notes: as for B1
Take B11: binding was characterised by a dissociation constant (Kd) of 0.117 nM.

B12: A96 (antibody, human IgG1, V domains shown)
VH: QVQLVQSGAEVKKPGASVKVSCKASGFDIQDTYMHWVRQAPGQGLEWMGRIEPASGHIKYDPKFQGRATMTRDTSTSTVYMELSSLRSEDTAVYYCARSGGLPDWWGQGTTVTVSS
VL: EIVLTQSPGTLSLSPGERATLSCRASSSVSYMYWYQQKPGQAPRPWIYATSNLASGIPDRFSGSGSGTDFTLTISRLEPEDFAVYYCQQWEGNPRTFGGGTKLEIK
notes: as for B1
Molecule B12 gave an equilibrium dissociation constant (Kd) of 0.095 nM.

B13: A74 (antibody, human IgG1, V domains shown)
VH: QVQLVQSGAEVKKPGASVKVSCKASGFDIQDTYMHWVRQAPGQGLEWMGRIEPASGHIKYDPKFQGRVTITTDTSTSTVYMELSSLRSEDTAVYYCARSGGLPDWWGQGTTVTVSS
VL: EIVLTQSPGTLSLSPGERATLSCRASSSVSYMYWYQQKPGQAPRPWIYATSNLASGIPDRFSGSGSGTDFTLTISRLEPEDFAVYYCQQWEGNPRTFGGGTKLEIK
notes: as for B1
In turn, B13 showed an equilibrium dissociation constant (Kd) of 0.141 nM.

B14: A71 (antibody, human IgG1, V domains shown)
VH: QVQLVQSGAEVKKPGASVKVSCKASGFDIQDTYMHWVRQAPGQGLEWMGRIEPASGHIKYDPKFQGRVTITTDTSTSTVYMELSSLRSEDTAVYYCARSGGLPDWWGQGTTVTVSS
VL: EIVLTQSPGTLSLSPGERATLSCRASSSVSYMYWYQQKPGQAPRLLIYATSNLASGIPDRFSGSGSGTDFTLTISRLEPEDFAVYYCQQWEGNPRTFGGGTKLEIK
notes: as for B1
In turn, B14 yielded a Kd of 0.15 nM.

B15: A85 (antibody, human IgG1, V domains shown)
VH: QVQLVQSGAEVKKPGASVKVSCKASGFDIQDTYMHWVRQAPGQGLEWMGRIEPASGHIKYDPKFQGRVTMTRDTSTSTVYMELSSLRSEDTAVYYCARSGGLPDWWGQGTTVTVSS
VL: EIVLTQSPGTLSLSPGERATLSCRASSSVSYMYWYQQKPGQAPRLLIYATSNLASGVPDRFSGSGSGTDFTLTISRLEPEDFAVYYCQQWEGNPRTFGGGTKLEIK
notes: as for B1
B15 returned a Kd of 0.13 nM.

B16: A88 (antibody, human IgG1, V domains shown)
VH: QVQLVQSGAEVKKPGASVKVSCKASGFDIQDTYMHWVRQAPGQGLEWMGRIEPASGHIKYDPKFQGRVTMTRDTSTSTVYMELSSLRSEDTAVYYCARSGGLPDWWGQGTTVTVSS
VL: EIVLTQSPGTLSLSPGERATLSCRASSSVSYMYWYQQKPGQAPRLLIYATSNLASGIPDRFSGSGSGTDYTLTISRVEPEDFAVYYCQQWEGNPRTFGGGTKLEIK
notes: as for B1
The molecule B16 showed a Kd of 0.081 nM.

B17: A73 (antibody, human IgG1, V domains shown)
VH: QVQLVQSGAEVKKPGASVKVSCKASGFDIQDTYMHWVRQAPGQGLEWMGRIEPASGHIKYDPKFQGRVTMTTDTSTSTVYMELSSLRSEDTAVYYCARSGGLPDWWGQGTTVTVSS
VL: EIVLTQSPGTLSLSPGERATLSCRASSSVSYMYWYQQKPGQAPRPWIYATSNLASGIPDRFSGSGSGTDFTLTISRLEPEDFAVYYCQQWEGNPRTFGGGTKLEIK
notes: as for B1
B17 had an equilibrium dissociation constant (Kd) of 0.128 nM.

B18: A72 (antibody, human IgG1, V domains shown)
VH: QVQLVQSGAEVKKPGASVKVSCKASGFDIQDTYMHWVRQAPGQGLEWMGRIEPASGHIKYDPKFQGRATITTDTSTSTVYMELSSLRSEDTAVYYCARSGGLPDWWGQGTTVTVSS
VL: EIVLTQSPGTLSLSPGERATLSCRASSSVSYMYWYQQKPGQAPRLLIYATSNLASGIPDRFSGSGSGTDFTLTISRLEPEDFAVYYCQQWEGNPRTFGGGTKLEIK
notes: as for B1
Molecule B18 gave a Kd of 0.159 nM.

B19: A69 (antibody, human IgG1, V domains shown)
VH: EVQLVQSGAEVKKPGASVKVSCKASGFDIQDTYMHWVRQAPGQGLEWMGRIEPASGHIKYDPKFQGRVTMTRDTSTSTVYMELSSLRSEDTAVYYCARSGGLPDWWGQGTTVTVSS
VL: EIVLTQSPGTLSLSPGERATLSCRASSSVSYMYWYQQKPGQAPRLLIYATSNLASGIPDRFSGSGSGTDFTLTISRLEPEDFAVYYCQQWEGNPRTFGGGTKLEIK
notes: as for B1
B19 gave a Kd of 0.136 nM.

B20: A90 (antibody, human IgG1, V domains shown)
VH: QVQLVQSGAEVKKPGASVKVSCKASGFDIQDTYMHWVRQAPGQGLEWMGRIEPASGHIKYDPKFQGRVTMTRDTSTSTVYMELSSLRSEDTAVYYCARSGGLPDWWGQGTTVTVSS
VL: EIVLTQSPGTMSLSPGERATLSCRASSSVSYMYWYQQKPGQAPRLLIYATSNLASGIPDRFSGSGSGTDFTLTISRLEPEDFAVYYCQQWEGNPRTFGGGTKLEIK
notes: as for B1
The molecule B20 yielded a dissociation constant (Kd) of 0.107 nM.

B21: A89 (antibody, human IgG1, V domains shown)
VH: QVQLVQSGAEVKKPGASVKVSCKASGFDIQDTYMHWVRQAPGQGLEWMGRIEPASGHIKYDPKFQGRVTMTRDTSTSTVYMELSSLRSEDTAVYYCARSGGLPDWWGQGTTVTVSS
VL: EIVLTQSPGTLSASPGERATLSCRASSSVSYMYWYQQKPGQAPRLLIYATSNLASGIPDRFSGSGSGTDFTLTISRLEPEDFAVYYCQQWEGNPRTFGGGTKLEIK
notes: as for B1
As to B21, the dissociation constant Kd is 0.117 nM.

As a reminder, the Kd is the concentration at which binding is half-saturated. A lower Kd goes with tighter binding.

Source of the values: US20260216326A1 (PROMETHEUS BIOSCIENCES, published 2026).
